Measured values taken from patent publication US6916472B2, “PON3 and uses thereof” (Regents of the University of Michigan, priority 2000, dated 2005).

Legend:
LDL = test: Protection of LDL against copper-induced oxidation (conjugated dienes, lipid peroxides); format: biochemical, rabbit; settings: LDL 0.1 mg protein/ml, 2-10 μM CuSO4, up to 5 h at 37° C.
Method: In one illustrative example (Example 5) of the present invention, the ability of PON3 to protect against LDL oxidation was assayed. In this example, LDL oxidation was induced by the incubation of the lipoprotein with 2-10 μM CuSO4 in the air, in the absence or presence of PON3 or PON 1, for up to 5 h at 37° C. The kinetics of lipoprotein oxidation was followed by monitoring the conjugated dienes formation at 234 nm (Esterbauer et al., Free Radical Res Commun, 6:67-75 [1989]) using a quartz microtiter plate in a SPECTRAmax® 190 plate reader (Molecular Devices). Lipoprotein oxidation was also determined by the lipid peroxides test, which analyzes lipid peroxides by their capacity to convert iodide to iodine, as measured photometrically at 365 nm (E1-Saadani et al., J Lipid Res, 30:627-630 [1989]).
LDL were isolated by ultracentrifugation as described above (Example 4). […] The kinetics of lipoprotein oxidation was followed by monitoring the conjugated dienes formation at 234 nm (Esterbauer et al., Free Radical Res Commun, 6:67-75 [1989]) using a quartz microtiter plate in a SPECTRAmax 190 plate reader (Molecular Devices). Lipoprotein oxidation was also determined by the lipid peroxides test, which analyzes lipid peroxides by their capacity to convert iodide to iodine, as measured photometrically at 365 nm (E1-Saadani et al., J Lipid Res, 30:627-630 [1989]).

[1] = Lactonase activity of wild type and mutant rPON3 in expression media of transfected 293T cells; format: biochemical; settings: Lovastatin hydrolysis; based on quantitation of western blot
Method: The hydrolysis of the statin lactones (mevastatin, lovastatin and simvastatin) was analyzed by high performance liquid chromatography (HPLC) using a Beckman System Gold HPLC with a Model 126 Programmable Solvent Module, a Model 168 Diode Array Detector set at 238 nm, a Model 7125 Rheodyne manual injector valve with a 20 μl loop, and a Beckman ODS Ultrasphere column (C 18, 250×4.6 mm, 5 μm). Lovastatin (Mevacor) and simvastatin were purchased as 20 mg tablets from Merck, from which the lactones were extracted with chloroform, evaporated to dryness and redissolved in methanol. Mevastatin was purchased from Sigma. […]
Samples were eluted isocratically at a flow rate of 1.0 ml/min with a mobile phase consisting of the following: A=acetic acid/acetonitrile/water (2:249:249, v/v/v) and B=acetonitrile, in A/B ratios of 50/50, 45/55 and 40/60 for mevastatin, lovastatin and simvastatin, respectively. […] Response factors for the acid products were calculated from the peak heights after complete alkaline hydrolysis of the lactones in 0.02 M NAOH for 2-24 hours at 25° C.
Expression media from the transient transfection of mutant clones into 293T cells was analyzed for activity towards the lactone Lovastatin up to 4 days post transfection.
Specific activities were calculated based on quantitation of the western blot in FIG. 10. […]

[2] = Statinase activity of samples of BL21(DE3) culture expressing rPON3; format: biochemical; settings: culture sample
Method: The hydrolysis of the statin lactones (mevastatin, lovastatin and simvastatin) was analyzed by high performance liquid chromatography (HPLC) using a Beckman System Gold HPLC with a Model 126 Programmable Solvent Module, a Model 168 Diode Array Detector set at 238 nm, a Model 7125 Rheodyne manual injector valve with a 20 μl loop, and a Beckman ODS Ultrasphere column (C 18, 250×4.6 mm, 5 μm). Lovastatin (Mevacor) and simvastatin were purchased as 20 mg tablets from Merck, from which the lactones were extracted with chloroform, evaporated to dryness and redissolved in methanol. Mevastatin was purchased from Sigma.
In a final volume of 1 ml, 10-200 μl of enzyme solution and 10 μl of substrate solution in methanol (0.5 mg/ml) were incubated at 25° C. in 50 mM Tris/HCl (pH 7.6), 1 mM CaCl2. Aliquots (100 μl) were removed at specified times and added to acetonitrile (100 μl), vortexed, and centrifuged for one minute at maximum speed (Beckman microfuge). The supernatants were poured into new tubes, capped and stored on ice until HPLC analysis.
Samples were eluted isocratically at a flow rate of 1.0 ml/min with a mobile phase consisting of the following: A=acetic acid/acetonitrile/water (2:249:249, v/v/v) and B=acetonitrile, in A/B ratios of 50/50, 45/55 and 40/60 for mevastatin, lovastatin and simvastatin, respectively. Under the above conditions the retention times for the carboxylic acid formed and the lactone substrate were as follows: 4.5/6.4 min (mevastatin), 4.4/5.6 min (lovastatin) and 5.4/7.7 min (simvastatin), respectively. Response factors for the acid products were calculated from the peak heights after complete alkaline hydrolysis of the lactones in 0.02 M NAOH for 2-24 hours at 25° C.
This Example describes the expression of rabbit PON3 protein in bacteria. The endogenous NcoI site at the translation start site, and an engineered XhoI site in the 3′ UTR were used to clone the rPON3 cDNA into the bacterial expression vector pET24d+. The resulting vector (prPON3/pET24d) was transformed into bacterial BL21(DE3) cells. LB broth supplemented with […] Kanamycin was inoculated with a single colony and the bacteria were grown at 37° C. When the culture reached an OD600 of 0.7, IPTG (1 mM) was added and growth continued. Samples of the culture were taken at the time of induction and 1, 2, 4, and 16 hours post-induction. Samples were electrophoresed through a 10% SDS-PAGE gel and Western blotted with a human PON1 antibody. An inducible, 40 kDa band was visible in the 1, 2, 4, and 16 time point lanes that aligned with a rPON3 standard. The samples were also assayed and found to have 257, 8663, 6178, 5872, and 8436 U/ml statinase activity for time points 0, 1, 2, 4, and 16 respectively.

[3] = system: mice given LD100 dose of LPS; settings: cited from earlier work

B1: PON3: paroxonase 3 polypeptide purified from rabbit serum, 40 kDa, SEQ ID NO:8 (protein, listed as Oryctolagus cuniculus)
chain: MAKLLLLTLLGASLAFVGERLLAFRNSFGAVQELEPVEPQNCVLIEGLENGSEDIDILPSGLAFISSGLKYPGMPNFAPDEPGKIFLIDMNEKNPRAQELEISNGFEKESFNPHGISTFIDKDHTVYLYVVNHPHMKSTVEIFKFEEQQRSLVHLKTIKHELLKSVNNIVVLGPEQFYATRDHYFTNYVLALLEMFLDLHWTSVLFYSPKEVKVVAKGFSSANGITVSLDKKYVYVADATAKNVHVMEKHDNWDLTELKVIHLDTLVDNLSVDPATGDILAGCHPNGMKLLNYNPEDPPGSEVLRIQNVLSEKPRVSTVYTNDGSVLQGSTVASVYQGKILIGTIFHKTLYCVL
inhibiting conjugated diene and lipid peroxide formation, compared with PON1 (LDL): significantly better

B2: L281W: site-directed single amino acid change mutant of rabbit PON3, SEQ ID NO:14 (protein, listed as Oryctolagus cuniculus)
chain: MAKLLLLTLLGASLAFVGERLLAFRNSFGAVQELEPVEPQNCVLIEGLENGSEDIDILPSGLAFISSGLKYPGMPNFAPDEPGKIFLIDMNEKNPRAQELEISNGFEKESFNPHGISTFIDKDHTVYLYVVNHPHMKSTVEIFKFEEQQRSLVHLKTIKHELLKSVNNIVVLGPEQFYATRDHYFTNYVLALLEMFLDLHWTSVLFYSPKEVKVVAKGFSSANGITVSLDKKYVYVADATAKNVHVMEKHDNWDLTELKVIHLDTLVDNLSVDPATGDIWAGCHPNGMKLLNYNPEDPPGSEVLRIQNVLSEKPRVSTVYTNDGSVLQGSTVASVYQGKILIGTIFHKTLYCVL
specific activity compared to the wild type (fraction) [1]: about ⅓

B3: K243H: site-directed single amino acid change mutant of rabbit PON3, SEQ ID NO:12 (protein, listed as Oryctolagus cuniculus)
chain: MAKLLLLTLLGASLAFVGERLLAFRNSFGAVQELEPVEPQNCVLIEGLENGSEDIDILPSGLAFISSGLKYPGMPNFAPDEPGKIFLIDMNEKNPRAQELEISNGFEKESFNPHGISTFIDKDHTVYLYVVNHPHMKSTVEIFKFEEQQRSLVHLKTIKHELLKSVNNIVVLGPEQFYATRDHYFTNYVLALLEMFLDLHWTSVLFYSPKEVKVVAKGFSSANGITVSLDKKYVYVADATAHNVHVMEKHDNWDLTELKVIHLDTLVDNLSVDPATGDILAGCHPNGMKLLNYNPEDPPGSEVLRIQNVLSEKPRVSTVYTNDGSVLQGSTVASVYQGKILIGTIFHKTLYCVL
specific activity compared to the wild type (fraction) [1]: about ⅓

B4: rPON3: recombinant rabbit PON3 expressed in 293T cells or E. coli BL21(DE3) (protein)
chain: AKLLLLTLLGASLAFVGERLLAFRNSFGAVQELEPVEPQNCVLIEGLENGSEDIDILPSGLAFISSGLKYPGMPNFAPDEPGKIFLIDMNEKNPRAQELEISNGFEKESFNPHGISTFIDKDHTVYLYVVNHPHMKSTVEIFKFEEQQRSLVHLKTIKHELLKSVNNIVVLGPEQFYATRDHYFTNYVLALLEMFLDLHWTSVLFYSPKEVKVVAKGFSSANGITVSLDKKYVYVADATAKNVHVMEKHDNWDLTELKVIHLDTLVDNLSVDPATGDILAGCHPNGMKLLNYNPEDPPGSEVLRIQNVLSEKPRVSTVYTNDGSVLQGSTVASVYQGKILIGTIFHKTLYCVL
statinase activity ([2]; 1 hour post-induction): 8663 U/ml | statinase activity ([2]; 2 hours post-induction): 6178 U/ml | statinase activity ([2]; 4 hours post-induction): 5872 U/ml | statinase activity ([2]; 16 hours post-induction): 8436 U/ml | statinase activity ([2]; time point 0 (time of IPTG induction)): 257 U/ml

B5: human PON1: purified human PON1 (paraoxonase 1), literature study of LaDu et al. (protein, UniProt P27169 2-355, looked up)
Serum …: AKLIALTLLGMGLALFRNHQSSYQTRLNALREVQPVELPNCNLVKGIETGSEDLEILPNGLAFISSGLKYPGIKSFNPNSPGKILLMDLNEEDPTVLELGITGSKFDVSSFNPHGISTFTDEDNAMYLLVVNHPDAKSTVELFKFQEEEKSLLHLKTIRHKLLPNLNDIVAVGPEHFYGTNDHYFLDPYLQSWEMYLGLAWSYVVYYSPSEVRVVAEGFDFANGINISPDGKYVYIAELLAHKIHVYEKHANWTLTPLKSLDFNTLVDNISVDPETGDLWVGCHPNGMKIFFYDSENPPASEVLRIQNILTEEPKVTQVYAENGTVLQGSTVASVYKGKLLIGTVFHKALYCEL
survival, pretreated animals ([3]; i.p. injection before LD100 dose of LPS): 60% | survival, post-treated animals ([3]; i.p. injection up to 2 hours after LD100 dose of LPS): 30%
